Results taken from patent US20260193376A1 (Novo Nordisk, published 2026).
Substitutions are numbered along the chain they refer to. Blank lines part the entries; values can stand above or below the binder they belong to.

Assays:
[1] = target: T1, human plasma-derived Factor IXa (human, UniProt P00740 47-191; P00740 227-461); test: cell-based or functional assay
[2] = target: T1, human plasma-derived Factor IXa; test: cell-based or functional assay; remark: listed apart in the source
[3] = target: T2, human coagulation Factor IX (human, UniProt P00740 47-461); test: ITC, 37 °C, pH 7.4, antibody injected into FIX
T2 construct: also called FIX
T2 sequence (P00740 47-461 T194A limits assumed): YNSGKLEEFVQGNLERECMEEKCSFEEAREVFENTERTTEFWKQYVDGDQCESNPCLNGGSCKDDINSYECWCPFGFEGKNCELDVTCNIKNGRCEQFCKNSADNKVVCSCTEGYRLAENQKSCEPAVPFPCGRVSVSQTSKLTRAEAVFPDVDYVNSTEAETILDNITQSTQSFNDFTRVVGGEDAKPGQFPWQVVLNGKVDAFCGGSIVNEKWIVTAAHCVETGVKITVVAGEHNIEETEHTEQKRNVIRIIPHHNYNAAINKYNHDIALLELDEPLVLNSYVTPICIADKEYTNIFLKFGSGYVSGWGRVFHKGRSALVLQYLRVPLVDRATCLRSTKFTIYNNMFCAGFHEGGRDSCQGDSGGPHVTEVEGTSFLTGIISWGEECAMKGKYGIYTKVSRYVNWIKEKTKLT
Experimental: (§1) Binding affinities for anti-FIX(a) and anti-FX(a) antibodies were measured by isothermal titration calorimetry […] by using a PEAQ-ITC calorimeter (Malvern, UK). The experiments were conducted at 37° C. and pH 7.4 using 25 mM Tris, 150 mM NaCl, 5 mM CaCl₂ (Tris-buffer). The sample cell (200 μl) contained either FIX, FIXa, or FX (macromolecule) and anti-FIX(a) and anti-FX(a) antibodies (ligand) were injected via a syringe (40 μl). All proteins were extensively dialyzed in Tris-buffer prior to measurements to secure matched buffer conditions. A thermal equilibration step was followed by a 60 s delay and subsequently an initial 0.2 μl injection of antibody, followed by 12-16 injections of 1.5-3 μl of antibody at an interval of 120 s. The stirring speed was maintained at 750 rpm, and the reference power is kept constant at 5-10 μcal/s. The heat associated with each injection of antibody is integrated and plotted against the molar ratio of ligand to macromolecule. The resulting isotherm is fitted to a one-site binding model to obtain the affinity (KD), stoichiometry (n), and enthalpy of interaction (ΔH) using the software provided by the manufacturer. Experiments were performed in at least duplicates.

[4] = target: T3, randomly biotinylated human FIXa (human, UniProt P00740 47-191; P00740 227-461, randomly biotinylated (NHS-d-biotin)); test: BLI (Octet) in-tandem binning on biotinylated FIXa, 330 nM each; competitor (1st antibody): mAb01-1767
T3 sequence (P00740 47-191, chain 1 of 2): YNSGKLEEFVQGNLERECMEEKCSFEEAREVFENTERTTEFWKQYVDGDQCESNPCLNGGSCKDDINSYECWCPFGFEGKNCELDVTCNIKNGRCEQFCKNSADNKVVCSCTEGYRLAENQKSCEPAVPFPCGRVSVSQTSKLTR
T3 sequence (P00740 227-461, chain 2 of 2): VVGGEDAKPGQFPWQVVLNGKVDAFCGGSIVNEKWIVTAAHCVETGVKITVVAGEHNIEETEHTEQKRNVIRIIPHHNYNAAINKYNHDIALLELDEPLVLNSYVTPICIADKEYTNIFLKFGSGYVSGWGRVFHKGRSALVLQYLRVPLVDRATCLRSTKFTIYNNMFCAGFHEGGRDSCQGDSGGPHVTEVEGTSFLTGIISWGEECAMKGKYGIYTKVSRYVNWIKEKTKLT
Experimental: (§2) Binning experiments were performed using Octet fortebio systems (HTX, Red384), based on the principle of Bio-Layer Interferometry, and equipped with streptavidin sensors (Pall Life Sciences, Menlo Park, CA), and using 8-channel mode. The binning assays were performed using a modified in-tandem setup. Briefly, (1) 370 nM randomly biotinylated human FIXa (biotinylated using NHS-d-biotin from Sigma H1759 and human FIXa obtained from Haematologic Technologies, Essex Junction, VT) was captured by streptavidin tips (dip and read biosensors Part NO:18-5019, Pall Life Sciences, Menlo Park, CA) for 5 minutes, (2) 330 nM of a first bivalent anti-FIXa antibody was then offered to the streptavidin tips, and incubated for 10 minutes until the biotinylated FIXa were fully saturated and (3) the tips were then offered to an equimolar solution of 330 nM of the first antibody and 330 nM of a second bivalent anti-FIXa antibody for 5 minutes. […] Unspecific binding were evaluated by including an unrelated human IgG4 bivalent antibody as first and second antibody control.

[5] = target: T1, human plasma-derived Factor IXa; test: ITC, 37 °C, pH 7.4, antibody injected into FIXa
Experimental: as §1

[6] = target: T3, randomly biotinylated human FIXa; test: BLI (Octet) in-tandem binning on biotinylated FIXa, 330 nM each; competitor (1st antibody): hIgG4 (control)
Experimental: as §2

[7] = target: T3, randomly biotinylated human FIXa; test: BLI (Octet) in-tandem binning on biotinylated FIXa, 330 nM each; competitor (1st antibody): 224F3
Experimental: as §2

[8] = target: T3, randomly biotinylated human FIXa; test: BLI (Octet) in-tandem binning on biotinylated FIXa, 330 nM each; competitor (1st antibody): mAb01-2434
Experimental: as §2

T1 sequence (P00740 47-191, chain 1 of 2): as the sequence (P00740 47-191, chain 1 of 2) above
T1 sequence (P00740 227-461, chain 2 of 2): as the sequence (P00740 227-461, chain 2 of 2) above

B1: one-armed (OA) mAb01-9697 (antibody, V domains shown)
VH: EVQLVESGGGLVQPGRSLKLSCAASGFTFDDYAMHWVRQVPGKGLEWVSGISWRGDIGGYVDSVKGRFTISRDNAKNSLYLQLNSLRAEDTALYYCVKSYGSGSFYNAFDSWGQGTLVTVSS
VL: DIQMTQSPSTLSASVGDRVTITCRASQSISSWLAWYQQKPGKAPKFLIYKASRLERGTPSRFSGSGSGTEFSLTISSLQPDDFATYYCLEYSSYIRTFGQGTKVEIK
Stimulation Index, FXa generation assay, 3200 nM OA antibody [1]: 6540 fold

B2: bimAb05-3769 (bispecific antibody, V domains shown)
VH 1: B1 VH with K19R, D30H, D62K, L83M
VL 1: B1 VL with R53K
VH 2: EVQLVQSGAEVKKPGESLRISCKGSGYSFSTSWIVWVRQMPGKGLEWMGMIDPSDSFTSYSPSFQGHVTISADKSISTAYLQWSSLKASDTAMYYCARLHYYNSEEFDVWGQGTLVTVSS
VL 2: EIVLTQSPGTLSLSPGERATLSCRASQSVSSSYLAWYQQKPGQAPRLLIYGQSSRTRGIPDRFSGSGSGTDFTLTISRLEPEDFAVYYCQQFGDSQLFTFGQGTKLEIK
Maximum stimulation (fold), FXa generation assay with bispecific antibody; maximum at 8170 nM [2]: 27400 fold

B6: bimAb05-2113 (bispecific antibody, V domains shown)
VH 1: B1 VH with R54K, V97A
VL 1: B1 VL with V15A, R18E, F46L, R53K, E55D, T58V, S77D
VH 2: B2 VH 2 with V35S, F57Y, L115M
VL 2: B2 VL 2 with F92Y
Maximum stimulation (fold), FXa generation assay with bispecific antibody; maximum at 7600 nM [2]: 26300 fold

B7: bimAb05-0746 (bispecific antibody, V domains shown)
VH 1: B1 VH with K19R, D30H, R54K, A75E, L83M
VL 1: B1 VL with F46L
VH 2: B2 VH 2
VL 2: B2 VL 2
Maximum stimulation (fold), FXa generation assay with bispecific antibody; maximum at 3717 nM [2]: 14600 fold

B8: bimAb05-2114 (bispecific antibody, V domains shown)
VH 1: B1 VH with K19R, D30H, D62K, L83M
VL 1: B1 VL with R53K
VH 2: B2 VH 2 with V35S, F57Y, L115M
VL 2: B2 VL 2 with F92Y
Maximum stimulation (fold), FXa generation assay with bispecific antibody; maximum at 7580 nM [2]: 35200 fold

B10: bimAb05-2115 (bispecific antibody, V domains shown)
VH 1: B1 VH with K19R, D30H, R54K, A75E, L83M
VL 1: B1 VL with F46L
VH 2: B2 VH 2 with V35S, F57Y, L115M
VL 2: B2 VL 2 with F92Y
Maximum stimulation (fold), FXa generation assay with bispecific antibody; maximum at 7790 nM [2]: 14900 fold

B11: bimAb05-0745 (bispecific antibody, V domains shown)
VH 1: B1 VH with K19R, D30H, R54K, A75E, L83M
VL 1: B1 VL with E55D
VH 2: B2 VH 2
VL 2: B2 VL 2
Maximum stimulation (fold), FXa generation assay with bispecific antibody; maximum at 7980 nM [2]: 21100 fold

B14: bimAb05-3761 (bispecific antibody, V domains shown)
VH 1: B1 VH with R54K, V97A
VL 1: B1 VL with V15A, R18E, F46L, R53K, E55D, T58V, S77D
VH 2: B2 VH 2
VL 2: B2 VL 2
Maximum stimulation (fold), FXa generation assay with bispecific antibody; maximum at 2690 nM [2]: 16300 fold

B16: bimAb05-3755 (bispecific antibody, V domains shown)
VH 1: B1 VH with K19R, D30H, R54K, A75E, L83M
VL 1: B1 VL with E55D
VH 2: B2 VH 2 with S30T, N103H
VL 2: B2 VL 2 with Q52A, T56A, D94S, Q96R
Maximum stimulation (fold), FXa generation assay with bispecific antibody; maximum at 156 nM [2]: 7570 fold

B18: mAb01-9994 (antibody, V domains shown)
VH: B1 VH with K19R, D30H, R54K, A75E, L83M
VL: B1 VL with E55D
notes: Bivalent IgG
Kd [3]: 2480 nM
interferometry response value [4]: 0.01
Kd [5]: 1800 nM
interferometry response value [6]: 0.75
interferometry response value [7]: 0.4
interferometry response value [8]: 0.56

B19: bimAb05-2112 (bispecific antibody, V domains shown)
VH 1: B1 VH with K19R, D30H, R54K, A75E, L83M
VL 1: B1 VL with E55D
VH 2: B2 VH 2 with V35S, F57Y, L115M
VL 2: B2 VL 2 with F92Y
Maximum stimulation (fold), FXa generation assay with bispecific antibody; maximum at 7820 nM [2]: 30400 fold

B20: mAb01-9933 (antibody, V domains shown)
VH: B1 VH with R54K, V97A
VL: B1 VL with V15A, R18E, F46L, R53K, E55D, T58V, S77D
notes: Bivalent IgG
Kd [3]: 2390 nM
interferometry response value [4]: 0.02
Kd [5]: 1300 nM
interferometry response value [6]: 0.59
interferometry response value [7]: 0.34
interferometry response value [8]: 0.46

B21: 224F3 (mAb01-1582) (antibody, V domains shown)
VH: QVQMQQSGAELVKPGASVKLSCKASGYTFTSQDINWVRQRPEQGLEWIGWIFPGDGSTKYNEKLKGKATLTTDKSSSTAFMQLSRLTSEDSAVYFCARSAYYRYDGSYYYAMDYWGQGTSVTVSS
VL: QIVLTQSPAIMSASLGEEITLTCSASSSVSYMLWYQQKSGTSPKLLIYTTSNLASGVPSRFSGTGSGTFYSLTISSVEAEDAADYYCHQWSSYPRTFGGGTKLEIKR
interferometry response value [4]: 1.6
interferometry response value [6]: 2.11
interferometry response value [7]: 0.11
interferometry response value [8]: 1.69

Other lines, results leading:

Stimulation Index, FXa generation assay, 800 nM OA antibody [1]: 1110 fold
B3: one-armed (OA) mAb11-1360 (antibody, V domains shown)
VH: B1 VH
VL: B1 VL with F46L

Stimulation Index, FXa generation assay, 1600 nM OA antibody [1]: 7690 fold
B4: one-armed (OA) mAb11-1495 (antibody, V domains shown)
VH: B1 VH with K19R, D30H, V61A, D62K, L83M
VL: B1 VL with R53K, E55D, S72T

Stimulation Index, FXa generation assay, 1600 nM OA antibody [1]: 9010 fold
B5: one-armed (OA) mAb11-1499 (antibody, V domains shown)
VH: B1 VH with K19R, D30H, D62K, L83M
VL: B1 VL with R53K, E55D, S72T

Stimulation Index, FXa generation assay, 3600 nM OA antibody [1]: 3670 fold
B9: one-armed (OA) mAb01-9978 (antibody, V domains shown)
VH: B1 VH with K19R, D30H, R54K, A75E, L83M
VL: B1 VL with F46L

Stimulation Index, FXa generation assay, 1600 nM OA antibody [1]: 5850 fold
B12: one-armed (OA) mAb11-1502 (antibody, V domains shown)
VH: B1 VH with K19R, D62K, L83M
VL: B1 VL with F46L, R53K, E55D, S72T

Stimulation Index, FXa generation assay, 800 nM OA antibody [1]: 5790 fold
B13: one-armed (OA) mAb11-1389 (antibody, V domains shown)
VH: B1 VH with D30H, V40A, R54K, L83M, V97A
VL: B1 VL with V15A, E55D

Stimulation Index, FXa generation assay, 1600 nM OA antibody [1]: 10300 fold
B15: one-armed (OA) mAb11-1501 (antibody, V domains shown)
VH: B1 VH with K19R, D62K, L83M
VL: B1 VL with R53K, E55D, S72T

Stimulation Index, FXa generation assay, 3600 nM OA antibody [1]: 6440 fold
B17: one-armed (OA) mAb01-9933 (antibody, V domains shown)
VH: B1 VH with R54K, V97A
VL: B1 VL with V15A, R18E, F46L, R53K, E55D, T58V, S77D
